This note sets out measurements from patent publication US20080118509A1 (CEPHALON AUSTRALIA, published 2008).

The target in this experiment is T1, CEA (180 KDa glycoprotein purified from colorectal tumour liver metastases by affinity chromatography with … (UniProt P06731 35-685)).
T1 construct: Native glycoprotein dried onto microtitre plates; also called purified CEA
T1 sequence (looked up): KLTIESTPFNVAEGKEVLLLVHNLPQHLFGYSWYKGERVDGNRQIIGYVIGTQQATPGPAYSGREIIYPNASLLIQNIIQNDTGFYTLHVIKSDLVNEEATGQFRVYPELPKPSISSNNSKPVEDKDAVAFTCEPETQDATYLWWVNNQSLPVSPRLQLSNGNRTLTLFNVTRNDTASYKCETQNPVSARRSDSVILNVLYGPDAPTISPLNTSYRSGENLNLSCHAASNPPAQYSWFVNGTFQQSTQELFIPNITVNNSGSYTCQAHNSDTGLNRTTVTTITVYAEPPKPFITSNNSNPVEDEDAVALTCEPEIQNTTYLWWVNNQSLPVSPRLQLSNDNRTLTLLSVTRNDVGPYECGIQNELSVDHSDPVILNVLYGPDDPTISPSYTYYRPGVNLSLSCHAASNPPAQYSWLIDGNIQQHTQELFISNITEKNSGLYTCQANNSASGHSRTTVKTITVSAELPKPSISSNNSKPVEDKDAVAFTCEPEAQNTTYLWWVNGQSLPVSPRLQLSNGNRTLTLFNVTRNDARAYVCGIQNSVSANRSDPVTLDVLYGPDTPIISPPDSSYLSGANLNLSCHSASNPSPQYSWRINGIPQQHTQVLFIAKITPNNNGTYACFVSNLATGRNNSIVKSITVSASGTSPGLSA
Description: ELISA, antigen dried onto microtitre plates (FIG. 4). Here is the method:
The C14 antigen (90 KDa glycoprotein purified from saliva by affinity chromatography on C14 monoclonal), CEA (180 KDa glycoprotein purified from colorectal tumour live metastases by affinity chromatography with 365 mab) and glycolipid extract (glycolipid extracted in 3:1 methanol chloroform w/v from colorectal tumours) were dried onto microtitre plates by overnight incubation at 37° C. Binding of SC104 mab was assayed by ELISA and results expressed as absorbance 405 nm. SC101 and anti-CEA antibodies are included as positive controls.
Binding to purified antigen preparations. The C14 antigen (90 KDa glycoprotein purified from saliva by affinity chromatography on C14 monoclonal), CEA (180 KDa glycoprotein purified from colorectal tumour live metastases by affinity chromatography with 365 mab) and glycolipid extract (glycolipid extracted in 3:1 methanol chloroform w/v from colorectal tumours) were dried onto microtitre plates by overnight incubation at 37° C. Binding of SC104 mab was assayed by ELISA as described above.

B1: SC104 monoclonal antibody (antibody, V domains shown)
VH: DVQLQESGPDLVKPSQSLSLTCTVTGYSITSGYSWHWVRQFPGNKMEWMGHIHFSGRPTYNPSLSSRISITRDTSKNQFLLQLKFVTTEDTSTYFCARKGKGSDDGLNYWGQGISVTVSS
VL: ENVLTQSPVIMSASPGEKVTMTCSASSSLSYIHWYQQKSRTSPKLWIYDTSNLASGVPGRFSGSGSGNSYSLTISSMEAEDVATYYCFQGSEYPLTFGGGTKLEMT
notes: Mouse IgG1 mab with kappa light chain, from hybridoma SC104/1E9; also called SC104 mab; SC104 antibody
For B1, the binding result is on record as “no binding”.
